From PMC10602907 (2023)
Like-named read-outs stand apart in the source and are kept apart here.

Key:
Experiment in all cases: MST
[1] = target: T1, FgSreA, 6xHis-tagged recombinant protein (Fusarium graminearum PH-1)
[2] = target: T1, FgSreA, 6xHis-tagged recombinant protein; remark: listed apart in the source
[3] = target: FgHapX, 6xHis-tagged recombinant protein (Fusarium graminearum PH-1)

B1: FgSwc6, 6xHis-tagged recombinant protein (natural protein)
chain: MNNFGVIELASAKTTSAPGWAYVPDNTISRPTAPTNRKRARNVPGLTYSDLTARQDNKIRKEVEALDKDGGKDNTIPLPVKSGRVQGKHTPNVRKILQSQKTFGNHLDDFLAMQALVESNPAISRASGANSKRPSVSRKDTPSSSKPPPDEDTTMTDANLQPLLPEPSRSPPASHPGDYNPLLVSRVPDMPSDEELRRLLAHPPLNYGEATGTRDTKYPARSFCEVCGYWGRVRCMKCGTRVCALDCLEAHKEECVTRYGP
[1]
  Kd: 398 µM
[2]
  Kd: 3.04 µM

B2: FgUbp8, 6xHis-tagged recombinant protein (natural protein)
chain: MSARPTTPASPKNVRVKSPVPGLPMFGCEHIQLLLSKNQEVMNSSITHYKLILRGIFDATPIVPQTSTLDGRPVTSLTSNYLCLQCPSTVTEEERLRHGTKKQHRFYVDSRSGCLYCQICDDYIWDPTLEELRVRKIGTGSFSGRKRKHDELFTGSFKDDPRFISSNTNTASCRANGLRGIYNAGATCYQNVVLQSFLHNPLLRNFYLSDGHQSSDCQVSHCLSCAMDDMFQDFYALETTNGYTAANILSGFWISEKKAFENLVTTKEQDAHEFFQFLAEELHERNGDGKKPEIGSEHSCNCIMHQTFYGKMQTTTTCQNCSGQSNSIQSFLDLSLGLDNVVQKKSKRTGQKKPTVSLQDCLDEEYIKYDKCEYRCNNCNGTQQAKRHTSIKRLPNVLSIQLKRFEYKHGRHDRAASKVDNEVKFPLQLNMMPYTNRIRNHDSRESLELERSCTYDLLSVVVHVGELDTGHYTSYCRVGDQWFKFNDHKVELASLSDVLGAQAYLLFYIIRSLA
[3]
  Kd: 1.9 µM
